B1: GFP-MenaΔLERER (other, UniProt Q03173-3 1-541, looked up)
chain: MSEQSICQARAAVMVYDDANKKWVPAGGSTGFSRVHIYHHTGNNTFRVVGRKIQDHQVVINCAIPKGLKYNQATQTFHQWRDARQVYGLNFGSKEDANVFASAMMHALEVLNSQEAGPTLPRQNSQLPAQVQNGPSQEELEIQRRQLQEQQRQKERMSNAAAPASAETPLNPELGDSSASEPGLQAASQPAESPTPQGLVLGPPAPPPPPPLPSGPAYASALPPPPGPPPPPPLPSTGPPPPPPPPPPLPNQAPPPPPPPPAPPLPASGIFSGSTSEDNRPLTGLAAAIAGAKLRKVSRVEDGSFPGGGNTGSVSLASSKADAGRGNGPLPLGGSGLMEEMSALLARRRRIAEKGSTIETEQKEDRNEDAEPITAKAPSTSTPEPTRKPWERTNTMNGSKSPVISRPKSTPSSQPSANGVQTEGLDYDRLKQDILDEMRKELAKLKEELIDAIRQELSKSNTA
notes: Expressed in MVD7 cells; also called Mena mutant lacking the LERER repeat; not shown: GFP tag
B2: GFP-tagged EVH1 domain of Mena (other, UniProt Q03173 1-112, looked up)
chain: MSEQSICQARAAVMVYDDANKKWVPAGGSTGFSRVHIYHHTGNNTFRVVGRKIQDHQVVINCAIPKGLKYNQATQTFHQWRDARQVYGLNFGSKEDANVFASAMMHALEVLN
notes: domain: EVH1 domain; not shown: GFP tag
B3: Purified His-tagged LERER repeat protein (His-LERER) (other, mouse, UniProt Q03173 175-252, looked up)
chain: LERERMERERLERERLERERLERERLEQEQLERQRQEREHVERLERERLERLERERQERERERLEQLEREQVEWERER
notes: domain: LERER repeat; Expressed and purified from E. coli (pQE80L-His-LERER); also called LERER repeat region of Mena; not shown: His tag of the pQE80L vector
B4: β1 integrin (endogenous) (receptor, mouse, UniProt P09055 21-798, looked up)
chain: QTDKNRCLKANAKSCGECIQAGPNCGWCTNTTFLQEGMPTSARCDDLEALKKKGCQPSDIENPRGSQTIKKNKNVTNRSKGMAEKLRPEDITQIQPQQLLLKLRSGEPQKFTLKFKRAEDYPIDLYYLMDLSYSMKDDLENVKSLGTDLMNEMRRITSDFRIGFGSFVEKTVMPYISTTPAKLRNPCTSEQNCTSPFSYKNVLSLTDRGEFFNELVGQQRISGNLDSPEGGFDAIMQVAVCGSLIGWRNVTRLLVFSTDAGFHFAGDGKLGGIVLPNDGQCHLENNVYTMSHYYDYPSIAHLVQKLSENNIQTIFAVTEEFQPVYKELKNLIPKSAVGTLSGNSSNVIQLIIDAYNSLSSEVILENSKLPDGVTINYKSYCKNGVNGTGENGRKCSNISIGDEVQFEISITANKCPNKESETIKIKPLGFTEEVEVVLQFICKCNCQSHGIPASPKCHEGNGTFECGACRCNEGRVGRHCECSTDEVNSEDMDAYCRKENSSEICSNNGECVCGQCVCRKRDNTNEIYSGKFCECDNFNCDRSNGLICGGNGVCRCRVCECYPNYTGSACDCSLDTGPCLASNGQICNGRGICECGACKCTDPKFQGPTCETCQTCLGVCAEHKECVQCRAFNKGEKKDTCAQECSHFNLTKVESREKLPQPVQVDPVTHCKEKDIDDCWFYFTYSVNGNNEAIVHVVETPDCPTGPDIIPIVAGVVAGIVLIGLALLLIWKLLMIIHDRREFAKFEKEKMNAKWDTGENPIYKSAVTTVVNPKYEGK
notes: whole, on cells
B5: α5 integrin (endogenous) (receptor, mouse, UniProt P11688 45-1053, looked up)
chain: FNLDAEAPAVLSGPPGSLFGFSVEFYRPGRDGVSVLVGAPKANTSQPGVLQGGAVYVCPWGTSPIQCTTIQFDSKGSRILESSLYSAKGEEPVEYKSLQWFGATVRAHGSSILACAPLYSWRTEKDPQNDPVGTCYLSTENFTRILEYAPCRSDFGSAAGQGYCQGGFSAEFTKTGRVVLGGPGSYFWQGQILSATQEQISESYYPEYLINPVQGQLQTRQASSVYDDSYLGYSVAVGEFSGDDTEDFVAGVPKGNLTYGYVTVLNGSDIHSLYNVSGEQMASYFGYAVAATDTNGDGLDDLLVGAPLLMERTADGRPQEVGRVYIYLQRPAGIDPTPTLTLTGQDEFSRFGSSLTPLGDLDQDGYNDVAIGAPFGGEAQQGVVFIFPGGPGGLSTKPSQVLQPLWAAGRTPDFFGSALRGGRDLDGNGYPDLIVGSFGVDKALVYRGRPIISASASLTIFPSMFNPEERSCSLEGNPVSCINLSFCLNASGKHVPNSIGFEVELQLDWQKQKGGVRRALFLTSKQATLTQTLLIQNGAREDCREMKIYLRNESEFRDKLSPIHIALNFSLDPKAPMDSHGLRPVLHYQSKSRIEDKAQILLDCGEDNICVPDLQLDVYGEKKHVYLGDKNALNLTFHAQNLGEGGAYEAELRVTAPLEAEYSGLVRHPGNFSSLSCDYFAVNQSRQLVCDLGNPMKAGTSLWGGLRFTVPHLQDTKKTIQFDFQILSKNLNNSQSNVVSFPLSVEAQAQVSLNGVSKPEAVIFPVSDWNPQDQPQKEEDLGPAVHHVYELINQGPSSISQGVLELSCPQALEGQQLLYVTKVTGLSNCTSNYTPNSQGLELDPETSPHHLQKREAPGRSSTASGTQVLKCPEAKCFRLRCEFGPLHRQESRSLQLHFRVWAKTFLQREYQPFSLQCEAVYEALKMPYQILPRQLPQKKLQVATAVQWTKAEGSNGVPLWIIILAILFGLLLLGLLIYVLYKLGFFKRSLPYGTAMEKAQLKPPATSDA
notes: whole, on cells; Present in cells as the α5β1 heterodimer; detected by immunofluorescence or immunoprecipitated from lysates; also called endogenous α5; alpha5 integrin

How the values were obtained:
α5 integrin (endogenous) [1] = target: B5; assay: cell-based or functional assay
α5 integrin (endogenous) [2] = target: B5; assay: recruitment of α5 to mitochondria in cells expressing FP4-Mito, immunofluorescence
Description: Microscopy—Cells were fixed in 4% paraformaldehyde in PHEM buffer warmed to 37° C. for 20 minutes. Cells were permeabilized in 0.2% TX-100 and blocked in 10% Donkey Serum. […] (Abcam ab25247), integrin αv [RMV-7] (Abcam ab63490), integrin α6 [GoH3] […] F-actin was stained with AlexaFluor Phalloidin (Invitrogen). Z series of images were taken on an Olympus microscope with a 60× plan apo objective. Images were deconvolved using Deltavision Softworx software.

Purified GST = target: T1, Purified GST (UniProt P08515 1-218 = GST); assay: GST pull-down with purified proteins, western blot with anti-His
T1 construct: Control bait in the pull-down assay
Description: After incubation, GST- and GST-α5 beads containing the His-LERER bound fraction were recovered and analyzed by western blotting along with aliquots of unbound protein from the supernatant.
Binding Assays: GST-α5 integrin constructs and His-tagged variants of the LERER repeat region were expressed and purified from E. Coli. 10 nM α5 integrin cytoplasmic tail was immobilized on Glutathione beads and incubated for 1 hour, 4° C. with 200 nM His-LERER variants at constant agitation in PBS with 0.1% TritonX-100 and 2 mM βME. Beads were washed three times, and proteins were eluted in sample buffer, and assayed by western blot.

α5 integrin (endogenous) [3] = target: B5; assay: recruitment to mitochondria in cells expressing FP4-Mito, immunofluorescence
Description: Microscopy—Cells were fixed in 4% paraformaldehyde in PHEM buffer warmed to 37° C. for 20 minutes. Cells were permeabilized in 0.2% TX-100 and blocked in 10% Donkey Serum. […] (Abcam ab25247), integrin αv [RMV-7] (Abcam ab63490), integrin α6 [GoH3] […] F-actin was stained with AlexaFluor Phalloidin (Invitrogen).

[4] = target: p34 subunit of Arp2/3 (endogenous) (UniProt Q9CVB6 1-300); assay: α5 immunoprecipitation from NIH3T3 cell lysates, western blot
Excerpt: To determine if endogenously expressed Mena and α5 integrin form complexes within cells, α5 integrin was immunoprecipitated from NIH3T3 cell lysates followed by Western blot analysis (FIG. 2B).
Western Blotting/Immunoprecipitation. Standard procedures were used for protein electrophoresis, western blotting and immunoprecipitations. Western blots were developed using HRP secondary antibodies and ECL reagent (Amersham). […] Beads were washed three times in lysis buffer, and proteins were eluted in sample buffer.

T1 sequence (P08515 whole entry): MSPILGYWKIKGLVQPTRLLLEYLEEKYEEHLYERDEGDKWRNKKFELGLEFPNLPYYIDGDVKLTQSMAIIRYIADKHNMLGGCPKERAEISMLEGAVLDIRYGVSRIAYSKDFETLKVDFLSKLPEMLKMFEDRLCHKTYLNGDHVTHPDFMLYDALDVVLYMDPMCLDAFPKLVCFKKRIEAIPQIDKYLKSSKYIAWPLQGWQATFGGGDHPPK

Binder: B1
- t1/2 of fluorescence recovery (FRAP) in nascent, peripheral adhesions, cells plated for 30 minutes on FN (α5 integrin (endogenous) [1]): 11.9 s
- binding result (α5 integrin (endogenous) [2]): no binding

Binder: B2
- binding result (α5 integrin (endogenous) [2]): no binding

Binder: B3
- binding result (Purified GST): no binding (tested: 200 nM His-LERER variants)

Binder: B4
- binding result (α5 integrin (endogenous) [3]): binds

Binder: B5
- binding result [4]: no binding

Reference: US20150079113A1 (MIT, published 2015)
